Test results: article PMC9482650, “Quantitative fragmentomics allow affinity mapping of interactomes” (Nature Communications, 2022)

T1: MPDZ_10, O75970
T1 sequence (O75970 1624-1722, limits assumed, looked up): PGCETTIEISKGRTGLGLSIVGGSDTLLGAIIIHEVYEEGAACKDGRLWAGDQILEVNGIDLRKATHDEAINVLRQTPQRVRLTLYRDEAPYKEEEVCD

T2: PARD3B_1, Q8TEW8
T2 sequence (Q8TEW8 196-299, limits assumed, looked up): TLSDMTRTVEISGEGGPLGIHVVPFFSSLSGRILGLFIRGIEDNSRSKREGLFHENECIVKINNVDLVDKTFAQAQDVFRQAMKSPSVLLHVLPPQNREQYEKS

T3: APBA3_1, O96018
T3 sequence (O96018 389-490, limits assumed, looked up): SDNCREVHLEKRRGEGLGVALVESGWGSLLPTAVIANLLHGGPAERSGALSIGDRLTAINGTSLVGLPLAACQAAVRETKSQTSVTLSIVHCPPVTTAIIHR

T4: RADIL, Q96JH8
T4 sequence (Q96JH8 971-1071, limits assumed, looked up): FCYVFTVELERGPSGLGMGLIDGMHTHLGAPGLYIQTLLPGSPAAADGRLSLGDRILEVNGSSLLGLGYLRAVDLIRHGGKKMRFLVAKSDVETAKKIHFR

T5: DLG3_3, Q92796
T5 sequence (Q92796 374-475, limits assumed, looked up): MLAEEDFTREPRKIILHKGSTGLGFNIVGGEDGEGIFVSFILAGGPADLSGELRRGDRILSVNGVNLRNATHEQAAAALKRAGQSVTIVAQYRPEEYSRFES

T6: MPP6, Q9NZW5
T6 sequence (Q9NZW5 125-219, limits assumed, looked up): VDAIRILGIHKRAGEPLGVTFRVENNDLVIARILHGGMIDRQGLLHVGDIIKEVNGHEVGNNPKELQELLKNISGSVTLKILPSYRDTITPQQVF

T7: SYNJ2BP, P57105
T7 sequence (P57105 8-110, limits assumed, looked up): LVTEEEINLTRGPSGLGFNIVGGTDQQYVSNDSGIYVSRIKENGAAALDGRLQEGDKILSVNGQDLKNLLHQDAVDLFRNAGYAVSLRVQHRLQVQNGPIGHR

T8: LIN7B, Q9HAP6
T8 sequence (Q9HAP6 88-185, limits assumed, looked up): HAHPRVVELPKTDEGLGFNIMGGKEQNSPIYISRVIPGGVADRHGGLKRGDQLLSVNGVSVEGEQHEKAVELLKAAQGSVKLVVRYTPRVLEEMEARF

T9: SNTG2, Q9NY99
T9 sequence (Q9NY99 68-166, limits assumed, looked up): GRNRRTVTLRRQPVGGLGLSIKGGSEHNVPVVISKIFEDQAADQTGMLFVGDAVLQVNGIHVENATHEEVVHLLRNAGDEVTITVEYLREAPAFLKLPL

T10: LRRC7, Q96NW7
T10 sequence (Q96NW7 1440-1537, limits assumed, looked up): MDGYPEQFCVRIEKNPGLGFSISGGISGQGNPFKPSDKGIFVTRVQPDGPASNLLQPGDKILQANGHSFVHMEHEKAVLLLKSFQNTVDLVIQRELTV


Experiments:
Experiment in all cases: holdup assay
Set-up in all cases: key: below the threshold = too weak to quantify, mostly under pKd 3.1 to 4
Settings in all cases: plain residues with an end cap or a label only (N-terminal biotin on a linker: ado-ado)
AHNAK1, Q09666 = molecular target: AHNAK1, Q09666
MAGI1_2, Q96QZ7 = molecular target: MAGI1_2, Q96QZ7
MPDZ_10, O75970 = molecular target: T1, MPDZ_10, O75970
PARD3B_1, Q8TEW8 = molecular target: T2, PARD3B_1, Q8TEW8
NHERF4_1, Q86UT5-2 = molecular target: NHERF4_1, Q86UT5-2
GRASP, Q7Z6J2 = molecular target: GRASP, Q7Z6J2
Inadl_9, Q8NI35 = molecular target: Inadl_9, Q8NI35
DLG4_3, P78352 = molecular target: DLG4_3, P78352
IL16_4, Q14005 = molecular target: IL16_4, Q14005
DLG1_3, Q12959 = molecular target: DLG1_3, Q12959
APBA3_1, O96018 = molecular target: T3, APBA3_1, O96018
FRMPD3, Q5JV73 = molecular target: FRMPD3, Q5JV73
MAST1, Q9Y2H9 = molecular target: MAST1, Q9Y2H9
Inadl_6, Q8NI35 = molecular target: Inadl_6, Q8NI35
PARD3_3, Q8TEW0 = molecular target: PARD3_3, Q8TEW0
RADIL, Q96JH8 = molecular target: T4, RADIL, Q96JH8
DLG3_3, Q92796 = molecular target: T5, DLG3_3, Q92796
NHERF2_2, Q15599 = molecular target: NHERF2_2, Q15599
TJP2_1, Q9UDY2 = molecular target: TJP2_1, Q9UDY2
Inadl_2, Q8NI35 = molecular target: Inadl_2, Q8NI35
MPP6, Q9NZW5 = molecular target: T6, MPP6, Q9NZW5
SNX27, Q96L92 = molecular target: SNX27, Q96L92
DLG5_1, Q8TDM6 = molecular target: DLG5_1, Q8TDM6
NOS1, P29475 = molecular target: NOS1, P29475
SYNJ2BP, P57105 = molecular target: T7, SYNJ2BP, P57105
LIN7B, Q9HAP6 = molecular target: T8, LIN7B, Q9HAP6
SNTG2, Q9NY99 = molecular target: T9, SNTG2, Q9NY99
LRRC7, Q96NW7 = molecular target: T10, LRRC7, Q96NW7

Sequence of Inadl_6, Q8NI35 (Q8NI35 1058-1167): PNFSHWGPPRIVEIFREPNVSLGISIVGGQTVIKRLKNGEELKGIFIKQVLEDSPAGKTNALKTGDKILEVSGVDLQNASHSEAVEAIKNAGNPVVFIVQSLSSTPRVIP
Sequence of PARD3_3, Q8TEW0 (Q8TEW0 582-685): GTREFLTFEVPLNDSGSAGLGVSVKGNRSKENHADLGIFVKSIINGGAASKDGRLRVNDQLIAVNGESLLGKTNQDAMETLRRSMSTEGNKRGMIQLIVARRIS
Sequence of NHERF2_2, Q15599 (Q15599 142-238): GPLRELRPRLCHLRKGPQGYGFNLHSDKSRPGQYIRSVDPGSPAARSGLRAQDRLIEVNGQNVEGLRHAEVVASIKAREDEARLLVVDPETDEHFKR
Sequence of DLG4_3, P78352 (P78352 306-403): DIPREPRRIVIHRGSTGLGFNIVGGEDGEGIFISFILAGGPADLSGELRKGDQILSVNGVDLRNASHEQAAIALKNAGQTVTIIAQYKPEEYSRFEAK
Sequence of IL16_4, Q14005 (Q14005 1229-1329): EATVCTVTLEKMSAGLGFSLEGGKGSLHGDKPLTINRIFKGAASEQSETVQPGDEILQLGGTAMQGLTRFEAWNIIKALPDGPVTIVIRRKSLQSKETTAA
Sequence of TJP2_1, Q9UDY2 (Q9UDY2 24-128): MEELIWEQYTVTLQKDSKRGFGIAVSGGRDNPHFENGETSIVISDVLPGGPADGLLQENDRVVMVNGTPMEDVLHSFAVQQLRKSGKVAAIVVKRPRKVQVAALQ
Sequence of NOS1, P29475 (P29475 9-101): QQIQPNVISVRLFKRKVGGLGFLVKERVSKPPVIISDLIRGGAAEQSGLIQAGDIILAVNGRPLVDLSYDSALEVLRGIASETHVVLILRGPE
Sequence of Inadl_9, Q8NI35 (Q8NI35 1530-1615): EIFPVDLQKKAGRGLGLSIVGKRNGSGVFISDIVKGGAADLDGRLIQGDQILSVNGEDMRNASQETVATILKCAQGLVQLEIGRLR
Sequence of MAGI1_2, Q96QZ7 (Q96QZ7 456-580): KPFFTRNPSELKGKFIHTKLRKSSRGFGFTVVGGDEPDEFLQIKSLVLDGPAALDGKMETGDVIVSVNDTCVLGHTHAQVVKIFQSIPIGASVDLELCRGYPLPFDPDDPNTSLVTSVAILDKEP
Sequence of AHNAK1, Q09666 (Q09666 4-100): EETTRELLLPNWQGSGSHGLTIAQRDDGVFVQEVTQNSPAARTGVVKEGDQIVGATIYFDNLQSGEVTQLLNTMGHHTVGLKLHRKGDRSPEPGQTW
Sequence of Inadl_2, Q8NI35 (Q8NI35 238-335): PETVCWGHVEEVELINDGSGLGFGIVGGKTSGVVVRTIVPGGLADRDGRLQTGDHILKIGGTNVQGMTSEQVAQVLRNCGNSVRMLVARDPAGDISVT
Sequence of DLG5_1, Q8TDM6 (Q8TDM6 617-713): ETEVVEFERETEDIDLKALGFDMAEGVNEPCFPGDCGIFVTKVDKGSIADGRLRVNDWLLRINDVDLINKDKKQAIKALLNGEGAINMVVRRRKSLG
Sequence of DLG1_3, Q12959 (Q12959 457-571): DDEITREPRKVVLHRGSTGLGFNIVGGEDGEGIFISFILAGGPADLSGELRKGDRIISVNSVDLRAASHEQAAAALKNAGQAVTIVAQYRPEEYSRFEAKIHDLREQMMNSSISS
Sequence of GRASP, Q7Z6J2 (Q7Z6J2 96-193): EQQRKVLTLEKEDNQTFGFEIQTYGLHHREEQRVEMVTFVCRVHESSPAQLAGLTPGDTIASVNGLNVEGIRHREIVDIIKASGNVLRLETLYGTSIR
Sequence of NHERF4_1, Q86UT5-2 (Q86UT5 other isoform, or with tags, fused parts or gaps): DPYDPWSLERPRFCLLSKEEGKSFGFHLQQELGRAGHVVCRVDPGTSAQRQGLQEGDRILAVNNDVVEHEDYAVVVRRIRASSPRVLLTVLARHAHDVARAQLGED
Sequence of MAST1, Q9Y2H9 (Q9Y2H9 962-1065): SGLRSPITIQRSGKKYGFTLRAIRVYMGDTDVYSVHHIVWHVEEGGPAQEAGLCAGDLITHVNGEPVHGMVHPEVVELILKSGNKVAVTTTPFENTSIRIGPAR
Sequence of FRMPD3, Q5JV73 (Q5JV73 12-100): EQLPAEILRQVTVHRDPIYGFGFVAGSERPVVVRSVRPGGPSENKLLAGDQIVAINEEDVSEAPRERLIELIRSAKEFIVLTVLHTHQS

| Binder | pKd (AHNAK1, Q09666) | pKd (MAGI1_2, Q96QZ7) | pKd (MPDZ_10, O75970) | pKd (PARD3B_1, Q8TEW8) | pKd (NHERF4_1, Q86UT5-2) | pKd (GRASP, Q7Z6J2) | pKd (Inadl_9, Q8NI35) | pKd (DLG4_3, P78352) | pKd (IL16_4, Q14005) | pKd (DLG1_3, Q12959) | pKd (APBA3_1, O96018) | pKd (FRMPD3, Q5JV73) | pKd (MAST1, Q9Y2H9) | pKd (Inadl_6, Q8NI35) | pKd (PARD3_3, Q8TEW0) | pKd (RADIL, Q96JH8) | pKd (DLG3_3, Q92796) | pKd (NHERF2_2, Q15599) | pKd (TJP2_1, Q9UDY2) | pKd (Inadl_2, Q8NI35) | other results |
| --- | --- | --- | --- | --- | --- | --- | --- | --- | --- | --- | --- | --- | --- | --- | --- | --- | --- | --- | --- | --- | --- |
| ARSAAASNYV [CLDN4, O14493] | below the threshold | below the threshold | below the threshold | 3.65 | 3.7 | below the threshold | 3.71 | below the threshold | below the threshold | below the threshold | below the threshold | below the threshold | 3.66 | below the threshold | 3.51 | 4.5 | below the threshold | below the threshold | 3.92 | below the threshold | pKd (MPP6, Q9NZW5): below the threshold; pKd (SNX27, Q96L92): 3.53; pKd (DLG5_1, Q8TDM6): below the threshold; pKd (NOS1, P29475): 3.82; pKd (SYNJ2BP, P57105): 3.85; pKd (LIN7B, Q9HAP6): below the threshold; pKd (SNTG2, Q9NY99): below the threshold; pKd (LRRC7, Q96NW7): below the threshold |
| PTPDLPQTRV [KLHDC7A, Q5VTJ3] | below the threshold | below the threshold | 3.52 | 3.72 | below the threshold | 3.64 | 3.51 | 3.72 | 3.5 | below the threshold | below the threshold | below the threshold | 4.58 | below the threshold | below the threshold | below the threshold | below the threshold | below the threshold | below the threshold | below the threshold | pKd (MPP6, Q9NZW5): below the threshold; pKd (SNX27, Q96L92): 4.21; pKd (DLG5_1, Q8TDM6): below the threshold; pKd (NOS1, P29475): below the threshold; pKd (SYNJ2BP, P57105): below the threshold; pKd (LIN7B, Q9HAP6): 3.89; pKd (SNTG2, Q9NY99): 5.24; pKd (LRRC7, Q96NW7): below the threshold |
| QRPYRRGSEI [KCNJ18, B7U540] | below the threshold | below the threshold | below the threshold | below the threshold | below the threshold | below the threshold | below the threshold | below the threshold | below the threshold | below the threshold | below the threshold | below the threshold | below the threshold | below the threshold | below the threshold | below the threshold | below the threshold | below the threshold | below the threshold | below the threshold | pKd (MPP6, Q9NZW5): below the threshold; pKd (SNX27, Q96L92): below the threshold; pKd (DLG5_1, Q8TDM6): below the threshold; pKd (NOS1, P29475): 3.56; pKd (SYNJ2BP, P57105): 4.91; pKd (LIN7B, Q9HAP6): 3.62; pKd (SNTG2, Q9NY99): below the threshold; pKd (LRRC7, Q96NW7): below the threshold |
| ARGPPRESEV [FAM110D, Q8TAY7] | below the threshold | 4.32 | below the threshold | below the threshold | below the threshold | below the threshold | 3.53 | 4.42 | below the threshold | 4.36 | below the threshold | below the threshold | 4.48 | below the threshold | below the threshold | below the threshold | 4.48 | below the threshold | below the threshold | below the threshold | pKd (MPP6, Q9NZW5): below the threshold; pKd (SNX27, Q96L92): 4.65; pKd (DLG5_1, Q8TDM6): below the threshold; pKd (NOS1, P29475): 3.77; pKd (SYNJ2BP, P57105): 5.35; pKd (LIN7B, Q9HAP6): below the threshold; pKd (SNTG2, Q9NY99): 4.4; pKd (LRRC7, Q96NW7): 4.15 |
